The nature of the data set: yeast display, Sf9 membrane polyspecificity reagent, FACS + sequencing; frameworks hold sequencing errors. A digest of the protocol:
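Sorting gates, low and high (top ~1%), were placed on anti-HA fluorescence to track expression and on streptavidin fluorescence to track reagent binding. A clone's polyreactivity label is taken from the gate it came out of. The reagent was 10% biotinylated, detergent-solubilized Sf9 membrane, applied for 1 hour at 4 °C to galactose-induced yeast display cells.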
For the sequence “QVQLEESGGGLVQAGGSLRLSCAASGITFDFNAKGWYRQAPGTERELVAAIRNRGGSTYYADSVKGRFTISRDNAKNTVYLQMHSLKPVDTAVYYCNVDLWPFVYSWWSYDYWGQGTQVTVSS”, the “polyreactivity (PSR sort gate)” value is on record as “high polyreactivity”. The same measure for “QVQLEESGGGLVQAGGSLRLSCAASGITFSRYAMGWYRQATGKERELVARISSSGGSTNYADSVKGRFTISRDNAKNTVYLQMNSLKPEDSAVYYCAVATRGKVARRVTFDYWGQGTQVTVSS”: “high polyreactivity”; for “QVQLEESGGGLVQAGGSLRLSCAASGLIFGKYAMGWYRTAPGKERELVAAITSSGGGTYYADSVKGRFTISRDNAKNTVYLQMNSLKPEDTAVYYCSTGPDPKYDYWGQGTQVTVSS”: “high polyreactivity”; for “QVQLEESGGGLVQAGGSLRLSCAASGLNIAVYTMGWYRQAPGKERELVAAITRRSTRTYYADSVKGRFTISRDNALISVFLQMNSLKPEDTAVYYCAADRVSSGAAFEFWGQGTQVTVSS”: “low polyreactivity”.

Turning to “QVQLEESGGGLVQAGGSLRLSCAASGLTFPWYAMGWYRPATGKEREFVAAITGGGSTYYADSVKGRFTISRDNAKNTVYLQMNSLKPEDTAVYYCNTDVPYGLDVSDTIDYYYWGQGTLVTVSS”, the “polyreactivity (PSR sort gate)” value is given as “low polyreactivity”. The same measure for “QVQLEESGGGLVQAGGSLRLSCAASGNIFESYGMGWYRQAPGKERELVATINTSSGSTYYADSVKGRFTISRDNAKNTVYLQMNSLKPEDTAVYYCAAEWYPYPWGYGYWGQGTQVTVSS”: “low polyreactivity”; for “QVQLEESGGGLVQAGGSLRLSCAASGPIFPGYVMGWYRQAPGKERELVAAISVRGGSTYYADSVKGRFTISRDNAKNTVYLQMNSLKPEDTAVYYCAADSYYYQGYRRYNYDYWGQGTQVTVSS”: “high polyreactivity”; for “QVQLEESGGGLVQAGGSLRLSCAASGRIFAVNAMGGYRQAPGKERELVAAINGGGSTNYADSVKGRFTLSRDNAKNTVYLQMNSLKPADTAVYYCAADVGWRSQTRGYYWGQGTQVTVSS”: “high polyreactivity”. The same measure for “QVQLEESGGGLVQAGGSLRLSCAASGRIFDDNAMGWYRPAPGKERELVAAISSSGGSTYYADSVKGRFTISRDNAKNTVYLQMNSLKPEDTAVYYCNAGRYIRAFWYAHGYDYWGQGTQVTVSS”: “high polyreactivity”; for “QVQLEESGGGLVQAGGSLRLSCAASGRIFIKNAMGWYRQAPGKVRELVAAISARGGSTYYADSVKGRFTISRDIAKNTVYLEMNSLKPEDTAVYDCAVDVYEPRYRRPLHHDYWGQGTQVTVSS”: “low polyreactivity”; for “QVQLEESGGGLVQAGGSLRLSCAASGRIFLTYAMGWYRQAPGKERELVAAIRSRSGTTYYADSVKGRFTISRDNAKNTVYLQMNSLKPEDTAVYYCAAGGKSRSYYWGQGTQVTVSS”: “high polyreactivity”. The same measure for “QVQLEESGGGLVQAGGSLRLSCAASGRIFLYNAMGWYRQAPGKERELVAAISRSGGSTYYADSVKGRFTISRDNAKNTVYLQMNSLKPEDTAVYYCAVGSPYGCRAPWVRGGDYWGQGTQVTVSS”: “high polyreactivity”; for “QVQLEESGGGLVQAGGSLRLSCAASGRIFQYYDMGWYRPATGKERELVAGIRTNGSSTYYADSVKGRFTISRDNAKNTVYLQMNSLKPEDSAVYYCAARHYRYLRQYDYWGQGTQVTVSS”: “low polyreactivity”. In the case of “QVQLEESGGGLVQAGGSLRLSCAASGRIFSRNARGWYRPSPGKERELVAASSSGGGSTYYADSVKGRFTISRDNAKNTVYLLMNSLKPEDTAVYYCAARTRITYDWGQGTQVTVSS”, the “polyreactivity (PSR sort gate)” value is recorded as “low polyreactivity”.

On to “QVQLEESGGGLVQAGGSLRLSCAASGRIFTYYGMGWYRQAPGKERELVAAITRSGGSTRYADSVKGRFTISRDNAKNTVYLQMNSLKPEDTAVYFCAKTHYGVQRLDSCGQGTQVTVSS”, for which the “polyreactivity (PSR sort gate)” value is on record as “low polyreactivity”. For “QVQLEESGGGLVQAGGSLRLSCAASGRIFVIYAMGWYRQAPGKERELVAVITSGGRTYYADSVNGRFTISRDNAKNTVYLQMNRLKPEDTAVYYCAARTGRGFEYWGQGTQVTVSS”, the “polyreactivity (PSR sort gate)” value is listed as “high polyreactivity”.

Take “QVQLEESGGGLVQAGGSLRLSCAASGRIFYEYAMGWYRQAPGKERELVADISSGDDTYYADSVKGRFTISRDNAKNTVYLQMNSLKPEDTAVYYCAADDGGSGFIYDYWGQGTQVTVSS”: the “polyreactivity (PSR sort gate)” value was “low polyreactivity”. The same measure for “QVQLEESGGGLVQAGGSLRLSCAASGRISGFNAMGWYRKAPGKEREFVAAISYRGGYTYADSVKGRFTISRDNAKNTVYLQMNSLKPEDTAVYYCNALWRGHGRYNYWGQGTQVNVSS”: “low polyreactivity”; for “QVQLEESGGGLVQAGGSLRLSCAASGRSFWPNAMGWYRQAPGKERELVAAISSGGSTNYADSVKVRFTISRDNAKNTVYLQMNSLKPEDTAVYYCASDGQGDKYDYYGHNFWGQGTQVTVSS”: “low polyreactivity”; for “QVQLEESGGGLVQAGGSLRLSCAASGRSFYGNAMGWYRQAPGKERELVAASSSRSSSTSYADSVKGRFTISRANAKNTVYLLMNSLKPEDTAVYYCATRYGSRTWYGYNYWGQATQVTVSS”: “high polyreactivity”.

With “QVQLEESGGGLVQAGGSLRLSCAASGRTFGRYDMGWYRQAPGKEREFVAAISTRGSRTYYADSVKGRFTISRDNAKNTVYLQMNSLKAEDTAVYYCAAEYLPRPYSWIYYYWGQGTQVTVSS”, the “polyreactivity (PSR sort gate)” value is given as “high polyreactivity”. The same measure for “QVQLEESGGGLVQAGGSLRLSCAASGRTFRYYAMGWSRQAPGKERELVAAISWSGSSTYYADSVKGRFTISRDNAKNTVYLQMNSLKAEDTAVYYCNAKGVRGKYFDYSRVSAYDYWGQGTQVTVSS”: “low polyreactivity”. The same measure for “QVQLEESGGGLVQAGGSLRLSCAASGRTFSIYAMGWYRQAPGKERELVASITGRGTRTYYADSVKGRFTISRDNAKNTVYLQMNSLKPEDTAVYYCNARGKVQSSYDDDYWGQGTQVTVSS”: “high polyreactivity”; for “QVQLEESGGGLVQAGGSLRLSCAASGRTFVPYVMGWYRQAPGKEMELVATINWSGGSTYYADSVKGRFTISRDNAKNTVYLQMNSLKPEDTADYYCAARYYSDWFYYLFRYDYWGQGTQVTVSS”: “low polyreactivity”; for “QVQLEESGGGLVQAGGSLRLSCAASGRTFYRSAMGWYRPEPGKERELVAAITWSGGSTYYAVSVKGRFTTSRDNAKNTVYLQMNSLKPEDTAVYYCARRLYPYRPTAYDYWGQGTQVTVSS”: “low polyreactivity”.

Turning to “QVQLEESGGGLVQAGGSLRLSCAASGRTFYSSAMGWYRQPPGKERQLVAAITISGGRTFYADSVKGRSTISRDNAKNTVYLQMNSLKPEDTAVYYCATDTYEPFHFEDDYWGQGTQVTVST”, the “polyreactivity (PSR sort gate)” value was “low polyreactivity”. The same measure for “QVQLEESGGGLVQAGGSLRLSCAASGRTIIINTMGWYRQAPGKERELVAAISKNGATTNYADSLKGRFTISRDNAKNTVYLQMNSLKPEDTSVYYCNARYSGYLRLDYWGQGTQVNVSS”: “low polyreactivity”. The same measure for “QVQLEESGGGLVQAGGSLRLSCAASGRTSYGYAMGWYRQAPGKERELVAAISSGGRTNYADSVKGRFTISRDNAKNTVYLQMNSLKPEDTAVYYCAKRYRYRPSYDYWGQGTQVTVSS”: “high polyreactivity”; for “QVQLEESGGGLVQAGGSLRLSCAASGRTTYWYAMGWYRQAPGKERELVADISWSGGSTYYADSVKGRFTISRDNAKNTVYLQMNSLKPEDPAVYYCNAAEQKYSIYYAFDTGPYDYWGQGTQVTVSS”: “low polyreactivity”. The same measure for “QVQLEESGGGLVQAGGSLRLSCAASGRTYRYAMGWYRQSPGKERELVAAIRWSGGSTYYADSVKGRFTISRDNAKNTVYLQMNSLKPEDTAVYYCAADSYATRYYYWGQGTQVTVSS”: “high polyreactivity”; for “QVQLEESGGGLVQAGGSLRLSCAASGSICGVYVMGWYRQAPGKERELVASISRGTTTNYADSVKGRFTISRDNAKNTVYLQMNSLKPEDTAVYYCNADIRGFFFQYDYWGQGTQVTVSS”: “low polyreactivity”; for “QVQLEESGGGLVQAGGSLRLSCAASGSICWLYAMGWYRQAPGKERELVAAIDSGDSTKYADSVKGRFTISRDNAKNTVYLQMNSLIPEDTAVYYCNASRRYHVRAPYDYWGQGTQVTVSS”: “low polyreactivity”. Regarding “QVQLEESGGGLVQAGGSLRLSCAASGSICYYYARGWYRQAPGKERELVASITSGGRTYYADSVKGRFTISRDNAKNTVYLQMNSLKPEDTAVYYCAAQRIWLGDYWGQGTQVTVSS”, the “polyreactivity (PSR sort gate)” value was “high polyreactivity”. As to “QVQLEESGGGLVQAGGSLRLSCAASGSIFARNAMGWYRQAPGNERELVAAISTGGGSTYYADSVKGRFTISRDNAKNSVYLQMKSLKPEDTAVYYCNAGDTQIRFYYWGQGTQVSVSS”, the “polyreactivity (PSR sort gate)” value is “low polyreactivity”. The same measure for “QVQLEESGGGLVQAGGSLRLSCAASGSIFGAYALGWYRQAPGKERELVAAISSSVDRTYYADSVKGRFTISRDNAKNTVYLQMNSLKPEDTAVYYCAARWGTRDRTKYYYWGQGTQVTVSS”: “high polyreactivity”; for “QVQLEESGGGLVQAGGSLRLSCAASGSIFGFYAMGWYRQAPGKERELVAAISQRGGNTYYADSVKGRFTISRDNAKNTVYLQMNSLKPEDTAVYYCATDKHPYKRHWYYTYDYWGQGTQLTVSS”: “high polyreactivity”.

With “QVQLEESGGGLVQAGGSLRLSCAASGSIFITYAMGWYRQAPGKERELVAAIRDSGDRTYYADSVKGRFTISRDTAKNTVYLQMNSLKPEDTGVYYCNARWQETLKYDYWGQGTLVTVSS”, the “polyreactivity (PSR sort gate)” value was “low polyreactivity”. As for “QVQLEESGGGLVQAGGSLRLSCAASGSIFKRKAMGWSRQAPGKERELVASISSGGSTHYADSVKGRFTISRDNAKNTVYLQMNSLKREDTAVYYCAATSIRWSVGSFRRDYWGQGTQVTVSS”, the “polyreactivity (PSR sort gate)” value is reported as “low polyreactivity”. Regarding “QVQLEESGGGLVQAGGSLRLSCAASGSIFLANAMGWYRQAPGKERELVATISSGGSTYYADSVKGRFTISRDNAKNTVYLQMNSLKPEDTAVYYCAKRRAYTKKLYYWGQGTQVTVSS”, the “polyreactivity (PSR sort gate)” value is “high polyreactivity”. On to “QVQLEESGGGLVQAGGSLRLSCAASGSIFPFYAMGRYRQAPGKERELVAAISDRGGSTYYADSVKGRFTISRDNAKNTVYLQMNSLKPEDTAVYYCAKGGGVSQGYTDEYDYWGQGTQVTVSS”, for which the “polyreactivity (PSR sort gate)” value is given as “low polyreactivity”.

On to “QVQLEESGGGLVQAGGSLRLSCAASGSIFSGYTMGWYRQAPGKERELVAGISYRGGSTYYADSVKGRFTISRDNAKNTVYLQMNSLKPEDTAVYYCAARVWWRYEYWGQGTQVTVSS”, for which the “polyreactivity (PSR sort gate)” value was “high polyreactivity”.

(Values after the nanobody polyreactivity screen of Harvey et al. (2022).)
